Assay results published in PMC9482650, “Quantitative fragmentomics allow affinity mapping of interactomes” (Nature Communications, 2022).

B1: RASSF6, Q6ZTQ3 (peptide)
chain: KLVIKTETTV
B2: RALBP1, Q15311 (peptide)
chain: PSRDRKETSI

Legend:
Test in all cases: holdup assay
Parameters in all cases: key: below the threshold = too weak to quantify, mostly under pKd 3.1 to 4
Conditions in all cases: plain residues with an end cap or a label only (N-terminal biotin on a linker: ttds)
[1] = molecular target: T1, DVL3, Q92997
T1 sequence (Q92997 244-331, limits assumed, looked up): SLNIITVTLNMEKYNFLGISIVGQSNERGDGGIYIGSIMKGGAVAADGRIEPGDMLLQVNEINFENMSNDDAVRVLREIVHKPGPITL

[2] = molecular target: T2, PDZD7_1, Q9H5P4
T2 sequence (Q9H5P4 81-178, limits assumed, looked up): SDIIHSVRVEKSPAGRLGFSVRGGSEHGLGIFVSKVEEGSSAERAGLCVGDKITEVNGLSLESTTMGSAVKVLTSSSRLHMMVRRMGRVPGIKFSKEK

[3] = molecular target: PDZD9, Q8IXQ8
Chain of PDZD9, Q8IXQ8 (Q8IXQ8 23-120): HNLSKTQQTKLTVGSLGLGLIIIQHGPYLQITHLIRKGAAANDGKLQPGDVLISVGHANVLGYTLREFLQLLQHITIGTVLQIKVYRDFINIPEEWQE

[4] = molecular target: T3, MPP1, Q00013
T3 sequence (Q00013 66-162, limits assumed, looked up): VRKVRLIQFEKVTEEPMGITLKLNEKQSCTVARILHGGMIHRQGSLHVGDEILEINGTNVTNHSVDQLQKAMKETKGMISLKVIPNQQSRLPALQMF

[5] = molecular target: PARD3B_3, Q8TEW8
Chain of PARD3B_3, Q8TEW8 (Q8TEW8 490-594): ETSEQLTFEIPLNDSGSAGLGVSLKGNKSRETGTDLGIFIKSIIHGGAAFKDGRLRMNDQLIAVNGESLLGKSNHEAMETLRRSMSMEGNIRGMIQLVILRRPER

[6] = molecular target: T4, MAGI2_1, Q86UL8
T4 sequence (Q86UL8 12-111, limits assumed, looked up): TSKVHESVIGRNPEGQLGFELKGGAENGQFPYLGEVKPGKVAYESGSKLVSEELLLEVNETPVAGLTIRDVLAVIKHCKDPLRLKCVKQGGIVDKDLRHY

[7] = molecular target: T5, PDZD8, Q8NEN9
T5 sequence (Q8NEN9 361-459, limits assumed, looked up): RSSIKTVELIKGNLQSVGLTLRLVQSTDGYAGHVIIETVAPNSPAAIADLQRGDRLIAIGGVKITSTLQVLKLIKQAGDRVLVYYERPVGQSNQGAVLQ

[8] = molecular target: RGS3, P49796-9
Chain of RGS3, P49796-9 (P49796 other isoform, or with tags, fused parts or gaps): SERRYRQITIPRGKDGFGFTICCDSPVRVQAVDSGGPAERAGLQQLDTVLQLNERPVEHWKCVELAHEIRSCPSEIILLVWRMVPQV

[9] = molecular target: DVL2, O14641
Chain of DVL2, O14641 (O14641 260-359): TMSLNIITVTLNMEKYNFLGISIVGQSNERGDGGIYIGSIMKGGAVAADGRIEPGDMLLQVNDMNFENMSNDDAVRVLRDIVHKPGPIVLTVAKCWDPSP

[10] = molecular target: T6, SHROOM2, Q13796
T6 sequence (Q13796 21-118, limits assumed, looked up): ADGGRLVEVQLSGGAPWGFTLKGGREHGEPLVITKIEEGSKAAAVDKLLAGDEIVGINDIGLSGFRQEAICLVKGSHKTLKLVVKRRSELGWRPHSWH

[11] = molecular target: T7, TJP3_2, O95049
T7 sequence (O95049 190-282, limits assumed, looked up): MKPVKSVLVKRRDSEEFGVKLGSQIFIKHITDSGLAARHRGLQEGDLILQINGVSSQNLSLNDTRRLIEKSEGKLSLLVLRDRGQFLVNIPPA

[12] = molecular target: PDZRN4_2, Q6ZMN7
Chain of PDZRN4_2, Q6ZMN7 (Q6ZMN7 389-498): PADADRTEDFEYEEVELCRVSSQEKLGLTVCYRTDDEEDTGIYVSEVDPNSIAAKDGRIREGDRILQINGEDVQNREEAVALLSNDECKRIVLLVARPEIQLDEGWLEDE

[13] = molecular target: T8, SHROOM3, Q8TF72
T8 sequence (Q8TF72 20-120, limits assumed, looked up): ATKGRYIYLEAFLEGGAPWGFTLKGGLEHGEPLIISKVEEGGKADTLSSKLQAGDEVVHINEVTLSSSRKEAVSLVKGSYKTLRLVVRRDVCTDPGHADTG

[14] = molecular target: T9, PDZD2_3, O15018
T9 sequence (O15018 581-682, limits assumed, looked up): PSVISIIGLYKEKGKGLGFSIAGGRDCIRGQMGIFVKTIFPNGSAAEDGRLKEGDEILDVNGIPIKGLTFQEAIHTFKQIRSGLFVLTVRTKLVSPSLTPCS

[15] = molecular target: T10, MPDZ_2, O75970
T10 sequence (O75970 252-347, limits assumed, looked up): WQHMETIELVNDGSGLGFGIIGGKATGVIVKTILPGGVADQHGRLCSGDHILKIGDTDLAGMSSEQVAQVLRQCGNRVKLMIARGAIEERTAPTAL

[16] = molecular target: T11, GIPC1, O14908
T11 sequence (O14908 128-223, limits assumed, looked up): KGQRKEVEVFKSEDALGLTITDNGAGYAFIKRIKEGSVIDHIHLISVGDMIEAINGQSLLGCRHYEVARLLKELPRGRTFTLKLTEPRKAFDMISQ

[17] = molecular target: CARD14, Q9BXL6
Chain of CARD14, Q9BXL6 (Q9BXL6 558-663): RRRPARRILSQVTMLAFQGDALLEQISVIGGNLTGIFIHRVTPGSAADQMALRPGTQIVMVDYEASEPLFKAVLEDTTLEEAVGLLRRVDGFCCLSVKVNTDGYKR

[18] = molecular target: T12, TJP3_1, O95049
T12 sequence (O95049 6-103, limits assumed, looked up): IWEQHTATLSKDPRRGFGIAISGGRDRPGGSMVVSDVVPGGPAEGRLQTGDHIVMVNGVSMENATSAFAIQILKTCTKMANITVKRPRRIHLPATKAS

[19] = molecular target: Inadl_10, Q8NI35
Chain of Inadl_10, Q8NI35 (Q8NI35 1673-1763): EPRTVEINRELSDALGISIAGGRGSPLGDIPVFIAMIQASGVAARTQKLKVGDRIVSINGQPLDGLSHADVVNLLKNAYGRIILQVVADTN

[20] = molecular target: T13, PARD6G, Q9BYG4
T13 sequence (Q9BYG4 153-261, limits assumed, looked up): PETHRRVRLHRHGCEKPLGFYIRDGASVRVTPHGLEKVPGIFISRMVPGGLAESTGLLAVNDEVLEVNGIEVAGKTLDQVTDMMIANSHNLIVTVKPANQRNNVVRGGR

[21] = molecular target: SCRIB_4, Q14160
Chain of SCRIB_4, Q14160 (Q14160 1095-1204): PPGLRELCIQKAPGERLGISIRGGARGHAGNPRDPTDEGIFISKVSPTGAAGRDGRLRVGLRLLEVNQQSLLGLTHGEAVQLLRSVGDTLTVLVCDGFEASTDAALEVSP

[22] = molecular target: T14, PREX2_2, Q70Z35
T14 sequence (Q70Z35 672-764, limits assumed, looked up): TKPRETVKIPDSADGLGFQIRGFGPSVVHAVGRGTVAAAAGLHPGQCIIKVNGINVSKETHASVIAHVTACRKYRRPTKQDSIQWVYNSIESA

| Binder | pKd [1] | pKd [2] | pKd [3] | pKd [4] | pKd [5] | pKd [6] | pKd [7] | pKd [8] | pKd [9] | pKd [10] | pKd [11] | pKd [12] | pKd [13] | pKd [14] | pKd [15] | pKd [16] | pKd [17] | pKd [18] | pKd [19] | pKd [20] | further results |
| --- | --- | --- | --- | --- | --- | --- | --- | --- | --- | --- | --- | --- | --- | --- | --- | --- | --- | --- | --- | --- | --- |
| B1 | below the threshold | below the threshold | below the threshold | 5.13 | below the threshold | below the threshold | below the threshold | below the threshold | below the threshold | below the threshold | below the threshold | below the threshold | below the threshold | below the threshold | below the threshold | 4.57 | below the threshold | below the threshold | below the threshold | below the threshold | pKd [21]: below the threshold; pKd [22]: below the threshold |
| B2 | below the threshold | below the threshold | below the threshold | 4.01 | below the threshold | 3.74 | below the threshold | below the threshold | below the threshold | below the threshold | below the threshold | below the threshold | below the threshold | below the threshold | below the threshold | 3.78 | below the threshold | below the threshold | below the threshold | below the threshold | pKd [21]: below the threshold; pKd [22]: below the threshold |
